The results in this text go back to paper PMC9687869, “Redox Regulation of Signaling Complex between Caveolin-1 and Neuronal Calcium Sensor Recoverin” (Biomolecules, 2022).

First the molecules themselves.
T1: recombinant myristoylated recoverin, reduced monomer (Rec) (UniProt P21457 1-202, N-terminal myristoyl group (myristoylation rate more than 95%))
T1 construct: recoverin, photoreceptor neuronal calcium sensor; also called intact recoverin; wild-type recoverin
T1 sequence (looked up): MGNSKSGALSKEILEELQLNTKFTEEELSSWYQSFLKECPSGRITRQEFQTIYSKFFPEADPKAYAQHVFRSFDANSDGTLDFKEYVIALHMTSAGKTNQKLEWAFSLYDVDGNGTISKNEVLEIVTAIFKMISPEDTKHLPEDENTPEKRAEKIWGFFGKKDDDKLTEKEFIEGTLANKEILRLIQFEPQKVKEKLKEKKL

B1: disulfide dimer of recoverin (dRec) (natural protein)
chain: GNSKSGALSKEILEELQLNTKFTEEELSSWYQSFLKECPSGRITRQEFQTIYSKFFPEADPKAYAQHVFRSFDANSDGTLDFKEYVIALHMTSAGKTNQKLEWAFSLYDVDGNGTISKNEVLEIVTAIFKMISPEDTKHLPEDENTPEKRAEKIWGFFGKKDDDKLTEKEFIEGTLANKEILRLIQFEPQKVKEKLKEKKL
modifications: N-terminal myristoyl group; disulfide between the cysteine-39 residues of the two chains
B2: N-terminal fragment of caveolin-1 M1-R101 with N-terminal His6-tag (Cav) (domain or fragment, UniProt Q03135 1-101, looked up)
chain: MSGGKYVDSEGHLYTVPIREQGNIYKPNNKAMADELSEKQVYDAHTKEIDLVNRDPKHLNDDVVKIDFEDVIAEPEGTHSFDGIWKASFTTFTVTKYWFYR
notes: caveolin-1, N-terminal domain and oligomerization domain, residues M1-R101; Forms homogeneous oligomers in solution by DLS; the number of copies was not measured; It names pET-22b and an N-terminal His6-tag; also called Cav (1-101 aa) fragment; caveolin-1 fragment; source: E. coli BL21 Star (DE3), solubilised in guanidine hydrochloride, dialysed, purified (Ni-NTA)
B3: N-terminally tagged caveolin-1 fragment M1-R101 with Y14E substitution (CavE) (domain or fragment, UniProt Q03135 1-101, looked up)
chain: B2 chain with Y14E
notes: caveolin-1, residues M1-R101 with Y14E, which mimics phosphorylation at Y14; built on Cav; Forms larger oligomeric particles than Cav by DLS; also called caveolin-1 mutant Y14E; source: E. coli BL21 Star (DE3), solubilised in guanidine hydrochloride, dialysed, purified (Ni-NTA)
B4: recoverin C39D mutant (Rec-C39D) (natural protein, UniProt P21457 1-202, looked up)
chain: T1 sequence (looked up) with C39D
modifications: N-terminal myristoyl group (myristoylation rate more than 95%)
notes: recoverin with C39D, which mimics oxidation of cysteine-39 to a sulfenic/sulfinic/sulfonic group; also called thiol oxidation mimicking mutant; oxidized monomer mimic

Substitutions are numbered along the chain they refer to. Names may count otherwise.

What all share (conditions): both partners purified
Assay [1] addresses B2. Description: pull-down; Cav or CavE covalently attached to BrCN-activated Sepharose CL-4B; 50 ug recoverin form; 20 mM Tris-HCl pH 7.5, 100 mM NaCl, 2 mM MgCl2, 2 mM EGTA (calcium-free); 30 min at room temperature; bound protein analysed by SDS-PAGE.
Assay [2] addresses B1. Description: SPR; Cav or CavE immobilised by amine coupling (ProteOn GLH chip); analyte 2.5-30 uM recoverin form; 10 mM HEPES pH 7.4, 150 mM NaCl, 2 mM DTT (none for dRec), 0.05% TWEEN 20, calcium-free (1 mM EDTA in the methods, 2 mM EGTA in Table 2); 25 C; heterogeneous ligand model.
Assay [3] deals with T1, recombinant myristoylated recoverin, …. The assay is described as above.
Assay [4] addresses B4. Described as above.
The target of assay [5] is B4. Description: SPR; Cav or CavE immobilised by amine coupling (ProteOn GLH chip); analyte 2.5-30 uM recoverin form; 10 mM HEPES pH 7.4, 150 mM NaCl, 2 mM DTT (none for dRec), 0.05% TWEEN 20, with calcium (1 mM CaCl2 in the methods, 2 mM Ca2+ in Table 2); 25 C; heterogeneous ligand model.

Regarding B1, the “fold increase of the interaction against Rec (pull-down)” value in assay [1] fell in the range of 2 to 3 fold.

In the case of B2, the Kd in assay [2] is 48.6 ± 1.1 nM; in assay [3], 490 ± 160 nM; in assay [4] it was 140 ± 44 nM; in assay [5], 376 ± 173 nM. Besides, the koff in assay [2] worked out at 2.44e-05 s⁻¹; in assay [3], 0.000105 s⁻¹; in assay [4] it was 0.000117 s⁻¹; in assay [5], 0.000186 s⁻¹.

Regarding B3, the Kd in assay [2] was 218 ± 87 nM; in assay [3], 1110 ± 66 nM; in assay [4], 329 ± 145 nM; in assay [5], 629 ± 257 nM. Further, the koff in assay [2] is 8.08e-05 s⁻¹; in assay [3], 8.81e-05 s⁻¹; in assay [4] it was 0.000172 s⁻¹; in assay [5], 0.000202 s⁻¹.

In the case of B4, the “fold increase of the interaction against Rec (pull-down)” value in assay [1] lay in the range of 2 to 3 fold.
